# Measurements from patent US20120207741A1.
# Biological target: protein of the maize/soybean meal (SBM) substrate (6:4)
substance,measurement,value
protease derived from Nocardiopsis sp. NRRL 18262 (SEQ ID NO: 1) (enzyme),"% dig. CP (digested protein, peptides of 1500 Dalton or below, gel filtration HPLC) in the in vitro pancreatic insufficiency digestion model (% dig. CP of total protein)",49.9
